Experimental data taken from patent US20170342144A1 (Sanofi, published 2017).

T1: human TGFβ2 (human, UniProt P61812 303-414)
T1 construct: also called TGFβ2 homodimer
T1 sequence: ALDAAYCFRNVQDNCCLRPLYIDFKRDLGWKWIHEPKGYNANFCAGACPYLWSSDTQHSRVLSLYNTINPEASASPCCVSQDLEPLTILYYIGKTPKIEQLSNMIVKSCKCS

T2: human TGFβ3 (human, UniProt P10600 301-412)
T2 sequence: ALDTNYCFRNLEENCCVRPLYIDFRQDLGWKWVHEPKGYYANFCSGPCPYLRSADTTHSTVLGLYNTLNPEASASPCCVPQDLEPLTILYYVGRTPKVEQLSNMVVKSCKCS


Assays:
human TGFβ2 [1] = target: T1, human TGFβ2; experiment: Biacore off-rate vs wt GC1008
Source text: (§1) Plasmids encoding either the GC1008 heavy chain or light chain were used as a template in PCR-based mutagenesis reactions. Mutations to the encoding DNA were made to create 155 single amino acid substitutions of the encoded heavy chain amino acid sequence and one single amino acid substitution of the encoded light chain amino acid sequence. A QuikChange® Lightning Site-Directed Mutagenesis kit (Agilent Technologies, Santa Clara Calif.) was used according to the manufacturer's instructions to create DNA mutations using a set of forward and reverse primers, either designed for a specific amino acid or for all 20 amino acids with a degenerate codon (NNK). After sequencing confirmation, identified mutant DNA was paired with a wild-type light or heavy chain DNA for transfection into an Expi293F™ host cell suspension (Life Techonologies Corp., Grand Island, N.Y.). At 4 days post-transfection, conditioned media (1 mL) was harvested and purified using a 1 mL Protein A PhyTip® column (PhyNexus, Inc., San Jose, Calif.) and a PureSpeed™ 12-channel pipette (Rainin Instrument LLC, Oakland, Calif.). Purified variant antibody samples were analyzed in duplicate on a Biacore® 3000 (GE Healthcare) at 50 nM concentrations, using the 100 RU level TGFβ1, 2, and 3 immobilized surfaces. The off-rate (kd) of the variants was divided by the kd of the wild-type control to obtain the fold change in the kd. […] A heat map was generated to visualize the results. Variants that completely lost affinity for TGFβ were shown in red without numbers.

human TGFβ3 [2] = target: T2, human TGFβ3; experiment: Biacore off-rate vs wt GC1008
Source text: as §1

human TGFβ1 [3] = target: T3, human TGFβ1 (human, UniProt P01137 279-390); experiment: Biacore off-rate vs wt GC1008
T3 construct: also called TGFβ1 homodimer
T3 sequence (P01137 279-390 limits assumed): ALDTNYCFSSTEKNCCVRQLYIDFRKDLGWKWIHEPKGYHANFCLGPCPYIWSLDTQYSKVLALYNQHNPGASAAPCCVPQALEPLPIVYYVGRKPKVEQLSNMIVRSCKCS
Source text: as §1

human TGFβ2 [4] = target: T1, human TGFβ2; experiment: Biacore off-rate vs wt GC1008, 50 nM
Procedure, shortened: (§2)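 Surface plasmon resonance on a Biacore 3000 measured how fast purified antibody variants dissociated from TGFβ isoforms immobilized at about 100 RU. Variants carried single heavy- or light-chain substitutions and were produced by transient Expi293F transfection with Protein A cleanup. Samples at 50 nM were tested in duplicate, and each variant kd was divided by the wild-type control kd to give fold change.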

human TGFβ3 [5] = target: T2, human TGFβ3; experiment: Biacore off-rate vs wt GC1008, 50 nM
Procedure, shortened: as §2

human TGFβ1 [6] = target: T3, human TGFβ1; experiment: Biacore off-rate vs wt GC1008, 50 nM
Procedure, shortened: as §2

human TGFβ2 [7] = target: T1, human TGFβ2; experiment: Biacore, 3.33-90 nM, 1:1 global fit, vs wt GC1008
Method: (§3) In FIG. 6C, seventeen mutants were selected and scaled up to produce sufficient amount of purified protein for KD (equilibrium constant=kd/ka) analysis by Biacore. Multiple concentrations (90, 30, 10 and 3.33 nM) were used in duplicate on the 150 RU level TGFβ1, 2, and 3 immobilized surfaces. KD was calculated using global curve fitting analysis for a 1-to-1 Langmuir binding model. The experimental data from all four concentrations were used for calculation except for I54N and I54R mutants, where only the top 2 concentrations were used. The fold changes in KD were compared to the fold changes in kd (off rate) presented in FIG. 6B, and a heat map was generated for visualization. Similar fold changes were observed from the two data sets, confirming the validity of using kd as a parameter for screening of 155 single mutants as shown in FIG. 6B.

human TGFβ3 [8] = target: T2, human TGFβ3; experiment: Biacore, 3.33-90 nM, 1:1 global fit, vs wt GC1008
Method: as §3

human TGFβ1 [9] = target: T3, human TGFβ1; experiment: Biacore, 3.33-90 nM, 1:1 global fit, vs wt GC1008
Method: as §3

Row | Binder | kd mutant/kd wt (human TGFβ2 [1]) | kd mutant/kd wt (human TGFβ3 [2]) | kd mutant/kd wt (human TGFβ1 [3]) | kd var/kd wt (human TGFβ2 [4]) | kd var/kd wt (human TGFβ3 [5]) | kd var/kd wt (human TGFβ1 [6]) | KD mutant/KD wt (human TGFβ2 [7]) | KD mutant/KD wt (human TGFβ3 [8]) | KD mutant/KD wt (human TGFβ1 [9])
1 | E74R (antibody, V domains shown, GC1008 IgG4 variant) VH: QVQLVQSGAEVKKPGSSVKVSCKASGYTFSSNVISWVRQAPGQGLEWMGGVIPIVDIANYAQRFKGRVTITADRSTSTTYMELSSLRSEDTAVYYCASTLGLVLDAMDYWGQGTLVTVSS VL: ETVLTQSPGTLSLSPGERATLSCRASQSLGSSYLAWYQQKPGQAPRLLIYGASSRAPGIPDRFSGSGSGTDFTLTISRLEPEDFAVYYCQQYADSPITFGQGTRLEIK | 1 | 0.7 | 2 | 1 | 0.7 | 2 | 1.3 | 0.8 | 2.1
2 | I54F (antibody, V domains shown, GC1008 IgG4 variant) VH: QVQLVQSGAEVKKPGSSVKVSCKASGYTFSSNVISWVRQAPGQGLEWMGGVIPFVDIANYAQRFKGRVTITADESTSTTYMELSSLRSEDTAVYYCASTLGLVLDAMDYWGQGTLVTVSS VL: ETVLTQSPGTLSLSPGERATLSCRASQSLGSSYLAWYQQKPGQAPRLLIYGASSRAPGIPDRFSGSGSGTDFTLTISRLEPEDFAVYYCQQYADSPITFGQGTRLEIK | 0.7 | 1.2 | 1.3 | 0.7 | 1.2 | 1.3 | 0.6 | 1.2 | 1.3
3 | I54W (antibody, V domains shown, GC1008 IgG4 variant) VH: QVQLVQSGAEVKKPGSSVKVSCKASGYTFSSNVISWVRQAPGQGLEWMGGVIPWVDIANYAQRFKGRVTITADESTSTTYMELSSLRSEDTAVYYCASTLGLVLDAMDYWGQGTLVTVSS VL: ETVLTQSPGTLSLSPGERATLSCRASQSLGSSYLAWYQQKPGQAPRLLIYGASSRAPGIPDRFSGSGSGTDFTLTISRLEPEDFAVYYCQQYADSPITFGQGTRLEIK | 1.2 | 1.7 | 2 | 1.2 | 1.7 | 2 | 1.4 | 3.1 | 1.7
4 | E74W (antibody, V domains shown, GC1008 IgG4 variant) VH: QVQLVQSGAEVKKPGSSVKVSCKASGYTFSSNVISWVRQAPGQGLEWMGGVIPIVDIANYAQRFKGRVTITADWSTSTTYMELSSLRSEDTAVYYCASTLGLVLDAMDYWGQGTLVTVSS VL: ETVLTQSPGTLSLSPGERATLSCRASQSLGSSYLAWYQQKPGQAPRLLIYGASSRAPGIPDRFSGSGSGTDFTLTISRLEPEDFAVYYCQQYADSPITFGQGTRLEIK | 0.3 | 0.3 | 0.8 | 0.3 | 0.3 | 0.8 | 0.5 | 0.6 | 0.9
5 | I54T (antibody, V domains shown, GC1008 IgG4 variant) VH: QVQLVQSGAEVKKPGSSVKVSCKASGYTFSSNVISWVRQAPGQGLEWMGGVIPTVDIANYAQRFKGRVTITADESTSTTYMELSSLRSEDTAVYYCASTLGLVLDAMDYWGQGTLVTVSS VL: ETVLTQSPGTLSLSPGERATLSCRASQSLGSSYLAWYQQKPGQAPRLLIYGASSRAPGIPDRFSGSGSGTDFTLTISRLEPEDFAVYYCQQYADSPITFGQGTRLEIK | 1.3 | 1.7 | 2.1 | 1.3 | 1.7 | 2.1 | 2.1 | 3.2 | 2.1
